What all share (assay): SPR (BIAcore J), PfuPCNA immobilised on CM5 chip, polymerase variant as analyte, 25° C.
One assay addresses T1, Taq94 (Taq-L15-PIP) (Thermus aquaticus, UniProt P19821 1-832).
T1 construct: Taq DNA polymerase, 15-residue Ser/Gly linker, PfuRFCL PIP box at the C-terminus; also called DNA polymerase variant Taq94
On the procedure:
(§1) In the surface plasmon resonance (SPR) analysis, BIAcore J (manufactured by BIACORE) was used. A PCNA from Pyrococcus furiosus (J. Bacteriology, 181, 6591-6599, 1999: hereinafter referred to as PfuPCNA) was immobilized on a CM5 sensor chip (manufactured by GE Healthcare) by amine coupling, and the measurement was carried out under the conditions of 25° C., a flow rate of 30 μL/minutes, and a solution E (10 mM Tris-HCl, 50 mM KCl, 1.5 mM MgCl₂, pH 8.3). A sample solution of Taq81 to Taq85 diluted to 10, 20, 40, 80, 160, or 320 nM or a sample solution of Taq94 diluted to 125 nM, 250 nM, 500 nM, 1 μM, or 2 μM was each added for 2 minutes. The sensorgrams obtained were analyzed by BIA evaluation program, and the dissociation constants (Kd) between Taq81 to Taq85 and PfuPCNA and between Taq94 and PfuPCNA were calculated.
(§2) The dissociation constants (Kd) with respect to the bindings between five kinds of Taq DNA polymerases to which PIP box was added at an N-terminal, each having a different length of a linker peptide (Taq81, Taq82, Taq83, Taq84, and Taq85), and PfuPCNA were calculated. As a result, the values were 7.1×10⁻⁷ M, 4.4×10⁻⁷ M, 2.4×10⁻⁷ M, 2.5×10⁻⁷ M, and 2.0×10⁻⁷ M, which were nearly of the same level regardless of the lengths of the linker peptides.

Another assay has as its target T2, Taq82 (PIP-L10-Taq) (Thermus aquaticus, UniProt P19821 1-832).
T2 construct: N-terminal PfuRFCL PIP box, 10-residue Ser/Gly linker, Taq DNA polymerase; also called DNA polymerase variant Taq82
As for the experimental part:
as §1, §2

In another assay the target is T3, Taq83 (PIP-L15-Taq) (Thermus aquaticus, UniProt P19821 1-832).
T3 construct: N-terminal PfuRFCL PIP box, 15-residue Ser/Gly linker, Taq DNA polymerase; also called DNA polymerase variant Taq83
As for the experimental part:
as §1, §2

In the next assay the target is T4, Taq85 (PIP-L47-Taq) (Thermus aquaticus, UniProt P19821 1-832).
T4 construct: N-terminal PfuRFCL PIP box, 47-residue Ser/Gly linker, Taq DNA polymerase; also called DNA polymerase variant Taq85
As for the experimental part:
as §1, §2

The target of the next assay is T5, Taq81 (PIP-L5-Taq) (Thermus aquaticus, UniProt P19821 1-832).
T5 construct: expressed in E. coli and purified; also called DNA polymerase variant Taq81
On the procedure: as §1, §2

Another assay concerns the target T6, Taq84 (PIP-L35-Taq) (Thermus aquaticus, UniProt P19821 1-832).
T6 construct: N-terminal PfuRFCL PIP box, 35-residue Ser/Gly linker, Taq DNA polymerase; also called DNA polymerase variant Taq84
As for the experimental part: as §1, §2

T1 sequence (P19821 other isoform, or with tags, fused parts or gaps): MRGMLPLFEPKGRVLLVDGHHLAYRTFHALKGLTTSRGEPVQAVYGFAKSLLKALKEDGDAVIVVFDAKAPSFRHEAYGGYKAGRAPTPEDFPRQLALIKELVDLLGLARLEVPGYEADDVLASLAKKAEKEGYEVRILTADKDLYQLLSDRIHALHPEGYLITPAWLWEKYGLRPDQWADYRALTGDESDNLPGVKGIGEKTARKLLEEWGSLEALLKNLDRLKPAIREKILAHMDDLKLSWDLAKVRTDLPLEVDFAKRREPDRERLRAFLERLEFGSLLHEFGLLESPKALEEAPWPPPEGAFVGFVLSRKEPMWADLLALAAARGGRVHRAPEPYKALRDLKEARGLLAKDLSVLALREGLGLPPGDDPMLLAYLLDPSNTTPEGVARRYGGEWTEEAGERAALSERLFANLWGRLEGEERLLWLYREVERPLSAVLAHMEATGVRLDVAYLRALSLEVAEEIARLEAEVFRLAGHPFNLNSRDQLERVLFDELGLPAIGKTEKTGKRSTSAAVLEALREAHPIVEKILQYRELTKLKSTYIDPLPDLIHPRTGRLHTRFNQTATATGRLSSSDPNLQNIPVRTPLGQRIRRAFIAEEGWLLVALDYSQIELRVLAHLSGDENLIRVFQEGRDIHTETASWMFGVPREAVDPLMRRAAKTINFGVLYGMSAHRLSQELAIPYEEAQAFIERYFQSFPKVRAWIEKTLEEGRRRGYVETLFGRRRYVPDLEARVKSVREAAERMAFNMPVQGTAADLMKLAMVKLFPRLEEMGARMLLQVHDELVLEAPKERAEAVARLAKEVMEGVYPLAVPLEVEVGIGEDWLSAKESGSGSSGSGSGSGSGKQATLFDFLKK
T2 sequence (P19821 other isoform, or with tags, fused parts or gaps): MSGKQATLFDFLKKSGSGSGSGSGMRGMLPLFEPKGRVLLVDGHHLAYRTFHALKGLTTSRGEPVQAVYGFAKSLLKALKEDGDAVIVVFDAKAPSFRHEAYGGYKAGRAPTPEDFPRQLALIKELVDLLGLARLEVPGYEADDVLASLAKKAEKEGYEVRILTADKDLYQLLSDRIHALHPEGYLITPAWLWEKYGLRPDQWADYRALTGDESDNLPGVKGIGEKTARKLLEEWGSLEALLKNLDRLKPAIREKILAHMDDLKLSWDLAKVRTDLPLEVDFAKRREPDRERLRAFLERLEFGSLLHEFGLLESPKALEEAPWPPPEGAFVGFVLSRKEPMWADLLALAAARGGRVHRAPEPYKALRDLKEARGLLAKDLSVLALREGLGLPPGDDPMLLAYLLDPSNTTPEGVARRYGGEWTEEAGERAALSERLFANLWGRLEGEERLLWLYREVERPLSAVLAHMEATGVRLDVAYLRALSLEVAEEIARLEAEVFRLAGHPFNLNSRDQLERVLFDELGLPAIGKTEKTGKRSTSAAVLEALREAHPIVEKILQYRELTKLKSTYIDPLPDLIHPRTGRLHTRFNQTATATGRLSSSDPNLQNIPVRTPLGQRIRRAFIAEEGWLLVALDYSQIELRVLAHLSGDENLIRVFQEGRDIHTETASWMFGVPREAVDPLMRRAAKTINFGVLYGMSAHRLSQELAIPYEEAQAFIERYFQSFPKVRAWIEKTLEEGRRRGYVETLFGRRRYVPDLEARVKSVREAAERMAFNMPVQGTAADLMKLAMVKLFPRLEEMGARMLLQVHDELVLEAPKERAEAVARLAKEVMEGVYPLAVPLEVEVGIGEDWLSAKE
T3 sequence (P19821 other isoform, or with tags, fused parts or gaps): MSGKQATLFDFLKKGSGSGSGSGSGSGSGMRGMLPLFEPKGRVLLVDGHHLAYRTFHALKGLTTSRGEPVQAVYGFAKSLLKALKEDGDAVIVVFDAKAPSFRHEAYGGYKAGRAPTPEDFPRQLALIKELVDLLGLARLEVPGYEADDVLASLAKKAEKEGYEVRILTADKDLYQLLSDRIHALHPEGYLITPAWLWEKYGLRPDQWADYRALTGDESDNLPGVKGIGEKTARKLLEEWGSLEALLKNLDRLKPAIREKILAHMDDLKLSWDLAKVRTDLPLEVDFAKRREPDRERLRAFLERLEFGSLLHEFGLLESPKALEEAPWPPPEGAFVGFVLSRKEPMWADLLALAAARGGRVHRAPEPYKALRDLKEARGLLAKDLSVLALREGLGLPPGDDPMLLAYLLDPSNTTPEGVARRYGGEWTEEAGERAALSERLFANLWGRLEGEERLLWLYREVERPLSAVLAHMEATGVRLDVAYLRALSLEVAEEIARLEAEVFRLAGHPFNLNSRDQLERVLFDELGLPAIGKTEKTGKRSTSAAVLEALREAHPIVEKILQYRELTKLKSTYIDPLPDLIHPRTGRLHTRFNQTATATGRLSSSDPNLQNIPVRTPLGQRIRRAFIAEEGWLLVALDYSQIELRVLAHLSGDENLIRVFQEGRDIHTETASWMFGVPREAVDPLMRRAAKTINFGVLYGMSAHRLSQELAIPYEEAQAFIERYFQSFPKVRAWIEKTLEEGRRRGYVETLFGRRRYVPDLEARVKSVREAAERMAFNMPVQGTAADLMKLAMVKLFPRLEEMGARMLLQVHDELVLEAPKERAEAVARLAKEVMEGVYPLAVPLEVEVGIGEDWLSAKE
T4 sequence (P19821 other isoform, or with tags, fused parts or gaps): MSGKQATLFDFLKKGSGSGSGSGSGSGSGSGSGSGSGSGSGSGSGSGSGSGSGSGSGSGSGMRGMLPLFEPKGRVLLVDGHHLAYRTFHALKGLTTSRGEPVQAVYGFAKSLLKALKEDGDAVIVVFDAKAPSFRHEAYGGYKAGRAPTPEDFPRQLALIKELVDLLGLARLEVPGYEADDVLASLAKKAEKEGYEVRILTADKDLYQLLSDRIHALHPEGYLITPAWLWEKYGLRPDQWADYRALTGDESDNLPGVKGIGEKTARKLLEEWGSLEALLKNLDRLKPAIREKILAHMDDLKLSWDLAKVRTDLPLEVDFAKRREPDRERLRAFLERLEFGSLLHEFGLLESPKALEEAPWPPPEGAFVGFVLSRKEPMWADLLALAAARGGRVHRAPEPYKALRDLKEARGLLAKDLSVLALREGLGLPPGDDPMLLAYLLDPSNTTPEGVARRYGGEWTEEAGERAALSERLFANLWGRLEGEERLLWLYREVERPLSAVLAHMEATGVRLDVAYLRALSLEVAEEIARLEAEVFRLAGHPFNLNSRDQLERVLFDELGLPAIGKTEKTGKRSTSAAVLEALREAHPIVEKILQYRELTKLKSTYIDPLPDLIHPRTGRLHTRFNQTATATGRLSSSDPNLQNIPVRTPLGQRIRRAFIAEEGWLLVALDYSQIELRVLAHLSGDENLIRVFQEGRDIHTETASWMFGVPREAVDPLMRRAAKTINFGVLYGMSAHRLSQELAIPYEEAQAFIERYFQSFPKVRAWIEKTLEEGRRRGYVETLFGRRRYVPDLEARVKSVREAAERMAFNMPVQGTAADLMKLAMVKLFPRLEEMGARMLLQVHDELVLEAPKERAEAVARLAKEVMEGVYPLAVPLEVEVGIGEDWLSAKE
T6 sequence (P19821 other isoform, or with tags, fused parts or gaps): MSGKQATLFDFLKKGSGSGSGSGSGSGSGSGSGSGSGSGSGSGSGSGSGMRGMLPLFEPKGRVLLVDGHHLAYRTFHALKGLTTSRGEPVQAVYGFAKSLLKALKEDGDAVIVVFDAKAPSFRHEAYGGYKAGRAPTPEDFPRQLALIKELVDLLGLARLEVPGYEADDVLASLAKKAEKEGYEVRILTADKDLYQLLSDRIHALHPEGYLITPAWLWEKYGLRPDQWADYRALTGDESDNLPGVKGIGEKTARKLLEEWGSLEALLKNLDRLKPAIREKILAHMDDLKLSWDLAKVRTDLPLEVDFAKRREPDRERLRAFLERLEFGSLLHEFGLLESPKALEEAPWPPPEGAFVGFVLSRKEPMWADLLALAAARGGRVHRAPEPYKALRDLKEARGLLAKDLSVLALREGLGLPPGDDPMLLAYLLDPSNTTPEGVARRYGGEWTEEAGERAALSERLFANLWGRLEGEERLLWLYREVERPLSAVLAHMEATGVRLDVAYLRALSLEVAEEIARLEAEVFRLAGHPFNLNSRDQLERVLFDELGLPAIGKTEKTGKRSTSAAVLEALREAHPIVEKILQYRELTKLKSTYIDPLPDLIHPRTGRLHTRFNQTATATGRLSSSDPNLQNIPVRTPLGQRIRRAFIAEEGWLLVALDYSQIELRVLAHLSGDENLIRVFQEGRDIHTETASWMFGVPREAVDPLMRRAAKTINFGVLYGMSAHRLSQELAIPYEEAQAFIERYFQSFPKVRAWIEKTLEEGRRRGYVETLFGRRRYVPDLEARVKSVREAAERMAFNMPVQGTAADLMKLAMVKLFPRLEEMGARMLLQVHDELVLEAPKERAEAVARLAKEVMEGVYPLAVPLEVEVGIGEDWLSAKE

B1: PCNA from Pyrococcus furiosus (other, UniProt O73947 1-249, looked up)
chain: MPFEIVFEGAKEFAQLIDTASKLIDEAAFKVTEDGISMRAMDPSRVVLIDLNLPSSIFSKYEVVEPETIGVNMDHLKKILKRGKAKDTLILKKGEENFLEITIQGTATRTFRVPLIDVEEMEVDLPELPFTAKVVVLGEVLKDAVKDASLVSDSIKFIARENEFIMKAEGETQEVEIKLTLEDEGLLDIEVQEETKSAYGVSYLSDMVKGLGKADEVTIKFGNEMPMQMEYYIRDEGRLTFLLAPRVEE
notes: Wild-type PfuPCNA immobilised on a CM5 chip by amine coupling; also called PfuPCNA
B1: the Kd with Taq94 (Taq-L15-PIP) was determined as 2500 nM; in the assay with Taq82 (PIP-L10-Taq), 440 nM; with Taq83 (PIP-L15-Taq), 240 nM; with Taq85 (PIP-L47-Taq) it was 200 nM; with Taq81 (PIP-L5-Taq), 710 nM; in the assay with Taq84 (PIP-L35-Taq) it was 250 nM.

These data come from patent publication US20190055527A1 (KYUSHU UNIVERSITY NATIONAL UNIVERSITY, published 2019).
